Laboratory results from patent US20110118131A1 (published 2011).

Target: T1, IL-1beta (UniProt P01584 117-269)
T1 construct: also called IL-1β
Assay: Biacore

Binder	fold difference in affinity vs parental [fold]	binding result
XPA23 Fab, heavy chain G55S (Fab, V domains shown) VH: EVQLLESGGGLVQPGGSLRLSCAASGFTFSKYFMFWVRQAPGKGLEWVSVISPSSGMTRYADSVKGRFTISRDNSKNTLYLQMNSLRAEDTAVYYCARVGYGGNSDYWGQGTLVTVSS VL: DIQMTQSPSSVSASVGDRLTIICRASQDINRWLAWYQQTPGNAPKLLIHSATSLQSGVPSRFSGSGSGTDFTLTINSLQPEDFATYYCQQADSFPLTFGGGTKVEIK	1.02	
XPA23 Fab, heavy chain G55Y (Fab, V domains shown) VH: EVQLLESGGGLVQPGGSLRLSCAASGFTFSKYFMFWVRQAPGKGLEWVSVISPSYGMTRYADSVKGRFTISRDNSKNTLYLQMNSLRAEDTAVYYCARVGYGGNSDYWGQGTLVTVSS VL: DIQMTQSPSSVSASVGDRLTIICRASQDINRWLAWYQQTPGNAPKLLIHSATSLQSGVPSRFSGSGSGTDFTLTINSLQPEDFATYYCQQADSFPLTFGGGTKVEIK	0.08	
XPA23 Fab, heavy chain G56D (Fab, V domains shown) VH: EVQLLESGGGLVQPGGSLRLSCAASGFTFSKYFMFWVRQAPGKGLEWVSVISPSGDMTRYADSVKGRFTISRDNSKNTLYLQMNSLRAEDTAVYYCARVGYGGNSDYWGQGTLVTVSS VL: DIQMTQSPSSVSASVGDRLTIICRASQDINRWLAWYQQTPGNAPKLLIHSATSLQSGVPSRFSGSGSGTDFTLTINSLQPEDFATYYCQQADSFPLTFGGGTKVEIK	0.05	
XPA23 Fab, heavy chain G56E (Fab, V domains shown) VH: EVQLLESGGGLVQPGGSLRLSCAASGFTFSKYFMFWVRQAPGKGLEWVSVISPSGEMTRYADSVKGRFTISRDNSKNTLYLQMNSLRAEDTAVYYCARVGYGGNSDYWGQGTLVTVSS VL: DIQMTQSPSSVSASVGDRLTIICRASQDINRWLAWYQQTPGNAPKLLIHSATSLQSGVPSRFSGSGSGTDFTLTINSLQPEDFATYYCQQADSFPLTFGGGTKVEIK	1.21	
XPA23 Fab, heavy chain G56F (Fab, V domains shown) VH: EVQLLESGGGLVQPGGSLRLSCAASGFTFSKYFMFWVRQAPGKGLEWVSVISPSGFMTRYADSVKGRFTISRDNSKNTLYLQMNSLRAEDTAVYYCARVGYGGNSDYWGQGTLVTVSS VL: DIQMTQSPSSVSASVGDRLTIICRASQDINRWLAWYQQTPGNAPKLLIHSATSLQSGVPSRFSGSGSGTDFTLTINSLQPEDFATYYCQQADSFPLTFGGGTKVEIK	1.41	
XPA23 Fab, heavy chain G56H (Fab, V domains shown) VH: EVQLLESGGGLVQPGGSLRLSCAASGFTFSKYFMFWVRQAPGKGLEWVSVISPSGHMTRYADSVKGRFTISRDNSKNTLYLQMNSLRAEDTAVYYCARVGYGGNSDYWGQGTLVTVSS VL: DIQMTQSPSSVSASVGDRLTIICRASQDINRWLAWYQQTPGNAPKLLIHSATSLQSGVPSRFSGSGSGTDFTLTINSLQPEDFATYYCQQADSFPLTFGGGTKVEIK	0.82	
XPA23 Fab, heavy chain G56K (Fab, V domains shown) VH: EVQLLESGGGLVQPGGSLRLSCAASGFTFSKYFMFWVRQAPGKGLEWVSVISPSGKMTRYADSVKGRFTISRDNSKNTLYLQMNSLRAEDTAVYYCARVGYGGNSDYWGQGTLVTVSS VL: DIQMTQSPSSVSASVGDRLTIICRASQDINRWLAWYQQTPGNAPKLLIHSATSLQSGVPSRFSGSGSGTDFTLTINSLQPEDFATYYCQQADSFPLTFGGGTKVEIK	2.05	
XPA23 Fab, heavy chain G56N (Fab, V domains shown) VH: EVQLLESGGGLVQPGGSLRLSCAASGFTFSKYFMFWVRQAPGKGLEWVSVISPSGNMTRYADSVKGRFTISRDNSKNTLYLQMNSLRAEDTAVYYCARVGYGGNSDYWGQGTLVTVSS VL: DIQMTQSPSSVSASVGDRLTIICRASQDINRWLAWYQQTPGNAPKLLIHSATSLQSGVPSRFSGSGSGTDFTLTINSLQPEDFATYYCQQADSFPLTFGGGTKVEIK	1.06	
XPA23 Fab, heavy chain G56Q (Fab, V domains shown) VH: EVQLLESGGGLVQPGGSLRLSCAASGFTFSKYFMFWVRQAPGKGLEWVSVISPSGQMTRYADSVKGRFTISRDNSKNTLYLQMNSLRAEDTAVYYCARVGYGGNSDYWGQGTLVTVSS VL: DIQMTQSPSSVSASVGDRLTIICRASQDINRWLAWYQQTPGNAPKLLIHSATSLQSGVPSRFSGSGSGTDFTLTINSLQPEDFATYYCQQADSFPLTFGGGTKVEIK	1.31	
XPA23 Fab, heavy chain G56R (Fab, V domains shown) VH: EVQLLESGGGLVQPGGSLRLSCAASGFTFSKYFMFWVRQAPGKGLEWVSVISPSGRMTRYADSVKGRFTISRDNSKNTLYLQMNSLRAEDTAVYYCARVGYGGNSDYWGQGTLVTVSS VL: DIQMTQSPSSVSASVGDRLTIICRASQDINRWLAWYQQTPGNAPKLLIHSATSLQSGVPSRFSGSGSGTDFTLTINSLQPEDFATYYCQQADSFPLTFGGGTKVEIK	2.11	
XPA23 Fab, heavy chain G56W (Fab, V domains shown) VH: EVQLLESGGGLVQPGGSLRLSCAASGFTFSKYFMFWVRQAPGKGLEWVSVISPSGWMTRYADSVKGRFTISRDNSKNTLYLQMNSLRAEDTAVYYCARVGYGGNSDYWGQGTLVTVSS VL: DIQMTQSPSSVSASVGDRLTIICRASQDINRWLAWYQQTPGNAPKLLIHSATSLQSGVPSRFSGSGSGTDFTLTINSLQPEDFATYYCQQADSFPLTFGGGTKVEIK	1.51	
XPA23 Fab, heavy chain G56Y (Fab, V domains shown) VH: EVQLLESGGGLVQPGGSLRLSCAASGFTFSKYFMFWVRQAPGKGLEWVSVISPSGYMTRYADSVKGRFTISRDNSKNTLYLQMNSLRAEDTAVYYCARVGYGGNSDYWGQGTLVTVSS VL: DIQMTQSPSSVSASVGDRLTIICRASQDINRWLAWYQQTPGNAPKLLIHSATSLQSGVPSRFSGSGSGTDFTLTINSLQPEDFATYYCQQADSFPLTFGGGTKVEIK	1.27	
XPA23 Fab, heavy chain G100D (Fab, V domains shown) VH: EVQLLESGGGLVQPGGSLRLSCAASGFTFSKYFMFWVRQAPGKGLEWVSVISPSGGMTRYADSVKGRFTISRDNSKNTLYLQMNSLRAEDTAVYYCARVDYGGNSDYWGQGTLVTVSS VL: DIQMTQSPSSVSASVGDRLTIICRASQDINRWLAWYQQTPGNAPKLLIHSATSLQSGVPSRFSGSGSGTDFTLTINSLQPEDFATYYCQQADSFPLTFGGGTKVEIK		no binding
XPA23 Fab, heavy chain G100F (Fab, V domains shown) VH: EVQLLESGGGLVQPGGSLRLSCAASGFTFSKYFMFWVRQAPGKGLEWVSVISPSGGMTRYADSVKGRFTISRDNSKNTLYLQMNSLRAEDTAVYYCARVFYGGNSDYWGQGTLVTVSS VL: DIQMTQSPSSVSASVGDRLTIICRASQDINRWLAWYQQTPGNAPKLLIHSATSLQSGVPSRFSGSGSGTDFTLTINSLQPEDFATYYCQQADSFPLTFGGGTKVEIK		no binding
XPA23 Fab, heavy chain G100H (Fab, V domains shown) VH: EVQLLESGGGLVQPGGSLRLSCAASGFTFSKYFMFWVRQAPGKGLEWVSVISPSGGMTRYADSVKGRFTISRDNSKNTLYLQMNSLRAEDTAVYYCARVHYGGNSDYWGQGTLVTVSS VL: DIQMTQSPSSVSASVGDRLTIICRASQDINRWLAWYQQTPGNAPKLLIHSATSLQSGVPSRFSGSGSGTDFTLTINSLQPEDFATYYCQQADSFPLTFGGGTKVEIK	0.06	
XPA23 Fab, heavy chain G100K (Fab, V domains shown) VH: EVQLLESGGGLVQPGGSLRLSCAASGFTFSKYFMFWVRQAPGKGLEWVSVISPSGGMTRYADSVKGRFTISRDNSKNTLYLQMNSLRAEDTAVYYCARVKYGGNSDYWGQGTLVTVSS VL: DIQMTQSPSSVSASVGDRLTIICRASQDINRWLAWYQQTPGNAPKLLIHSATSLQSGVPSRFSGSGSGTDFTLTINSLQPEDFATYYCQQADSFPLTFGGGTKVEIK		no binding
XPA23 Fab, heavy chain G100Q (Fab, V domains shown) VH: EVQLLESGGGLVQPGGSLRLSCAASGFTFSKYFMFWVRQAPGKGLEWVSVISPSGGMTRYADSVKGRFTISRDNSKNTLYLQMNSLRAEDTAVYYCARVQYGGNSDYWGQGTLVTVSS VL: DIQMTQSPSSVSASVGDRLTIICRASQDINRWLAWYQQTPGNAPKLLIHSATSLQSGVPSRFSGSGSGTDFTLTINSLQPEDFATYYCQQADSFPLTFGGGTKVEIK		no binding
XPA23 Fab, heavy chain G100R (Fab, V domains shown) VH: EVQLLESGGGLVQPGGSLRLSCAASGFTFSKYFMFWVRQAPGKGLEWVSVISPSGGMTRYADSVKGRFTISRDNSKNTLYLQMNSLRAEDTAVYYCARVRYGGNSDYWGQGTLVTVSS VL: DIQMTQSPSSVSASVGDRLTIICRASQDINRWLAWYQQTPGNAPKLLIHSATSLQSGVPSRFSGSGSGTDFTLTINSLQPEDFATYYCQQADSFPLTFGGGTKVEIK		no binding
XPA23 Fab, heavy chain G100S (Fab, V domains shown) VH: EVQLLESGGGLVQPGGSLRLSCAASGFTFSKYFMFWVRQAPGKGLEWVSVISPSGGMTRYADSVKGRFTISRDNSKNTLYLQMNSLRAEDTAVYYCARVSYGGNSDYWGQGTLVTVSS VL: DIQMTQSPSSVSASVGDRLTIICRASQDINRWLAWYQQTPGNAPKLLIHSATSLQSGVPSRFSGSGSGTDFTLTINSLQPEDFATYYCQQADSFPLTFGGGTKVEIK	2.8	
XPA23 Fab, heavy chain G100W (Fab, V domains shown) VH: EVQLLESGGGLVQPGGSLRLSCAASGFTFSKYFMFWVRQAPGKGLEWVSVISPSGGMTRYADSVKGRFTISRDNSKNTLYLQMNSLRAEDTAVYYCARVWYGGNSDYWGQGTLVTVSS VL: DIQMTQSPSSVSASVGDRLTIICRASQDINRWLAWYQQTPGNAPKLLIHSATSLQSGVPSRFSGSGSGTDFTLTINSLQPEDFATYYCQQADSFPLTFGGGTKVEIK	0.05	
XPA23 Fab, heavy chain G100Y (Fab, V domains shown) VH: EVQLLESGGGLVQPGGSLRLSCAASGFTFSKYFMFWVRQAPGKGLEWVSVISPSGGMTRYADSVKGRFTISRDNSKNTLYLQMNSLRAEDTAVYYCARVYYGGNSDYWGQGTLVTVSS VL: DIQMTQSPSSVSASVGDRLTIICRASQDINRWLAWYQQTPGNAPKLLIHSATSLQSGVPSRFSGSGSGTDFTLTINSLQPEDFATYYCQQADSFPLTFGGGTKVEIK	0.09	
XPA23 Fab, heavy chain G102E (Fab, V domains shown) VH: EVQLLESGGGLVQPGGSLRLSCAASGFTFSKYFMFWVRQAPGKGLEWVSVISPSGGMTRYADSVKGRFTISRDNSKNTLYLQMNSLRAEDTAVYYCARVGYEGNSDYWGQGTLVTVSS VL: DIQMTQSPSSVSASVGDRLTIICRASQDINRWLAWYQQTPGNAPKLLIHSATSLQSGVPSRFSGSGSGTDFTLTINSLQPEDFATYYCQQADSFPLTFGGGTKVEIK		no binding
